Target: T1, recombinant human BOLA1, fluorescently labelled (human, UniProt Q9Y3E2 1-137, NT-647 dye (Monolith NT Protein Labeling Kit RED))
T1 construct: BOLA1, human mitochondrial BolA protein
T1 sequence (looked up): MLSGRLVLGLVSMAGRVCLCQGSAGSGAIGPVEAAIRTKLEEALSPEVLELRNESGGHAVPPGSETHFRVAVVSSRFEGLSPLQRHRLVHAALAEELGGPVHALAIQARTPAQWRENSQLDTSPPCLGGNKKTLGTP
Assay: MST; 200 nM NT-647 labelled protein titrated with unlabelled protein from 200 µM to 6.1 nM; 50 mM KPi pH 7.4, 150 mM NaCl, 5% glycerol, 0.05 mg/mL BSA, 0.05% Tween20; 21°C; anaerobic
Details: both partners purified

B1: human holo-GLRX5 dimer containing the bridging [2Fe-2S] cluster (natural protein, UniProt Q86SX6 32-157, looked up)
chain: AGSGAGGGGSAEQLDALVKKDKVVVFLKGTPEQPQCGFSNAVVQILRLHGVRDYAAYNVLDDPELRQGIKDYSNWPTIPQVYLNGEFVGGCDILLQMHQNGDLVEELKKLGIHSALLDEKKDQDSK
modifications: bridging [2Fe-2S] cluster between two GLRX5 monomers
notes: GLRX5, human mitochondrial monothiol glutaredoxin, chemically reconstituted; also called chemically reconstituted GLRX5; source: chemically reconstituted with Fe-S cluster in an anaerobic chamber
fold affinity against BOLA3: 50 fold
